Consider one molecule from WO2019077951A1 (dated 2019).

The target in this test is T1, full-length MUC1 (amino acid sequence of SEQ ID NO: 27) (human (human cervical cancer cell line …, UniProt P15941 24-1255, limits assumed)).
T1 construct: Full-length protein from cell extract on a Western blot membrane
The test is described as follows: Western blotting.

T1 sequence (P15941 other isoform, or with tags, fused parts or gaps limits assumed): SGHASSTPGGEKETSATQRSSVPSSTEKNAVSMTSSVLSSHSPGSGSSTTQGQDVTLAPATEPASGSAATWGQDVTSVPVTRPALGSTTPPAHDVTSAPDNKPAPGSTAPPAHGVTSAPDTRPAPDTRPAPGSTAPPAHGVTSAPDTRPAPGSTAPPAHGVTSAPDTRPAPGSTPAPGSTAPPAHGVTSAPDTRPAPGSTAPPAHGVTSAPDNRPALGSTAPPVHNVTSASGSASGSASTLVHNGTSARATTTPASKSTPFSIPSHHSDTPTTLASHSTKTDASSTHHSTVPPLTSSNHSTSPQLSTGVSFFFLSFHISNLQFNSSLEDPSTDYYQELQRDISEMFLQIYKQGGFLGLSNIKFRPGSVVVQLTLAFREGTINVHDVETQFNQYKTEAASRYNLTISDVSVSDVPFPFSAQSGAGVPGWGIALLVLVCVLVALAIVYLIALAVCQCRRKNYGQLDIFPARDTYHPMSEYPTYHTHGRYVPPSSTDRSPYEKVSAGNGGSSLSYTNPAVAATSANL

B1: anti-MUC1 monoclonal antibody (antibody, V domains shown)
VH: EVKLEESGGGLVQPGGSMKLSCVASGFSFSDYWMNWVRQSPDKGLEWISDIRLKSYNYATHYAESVKGRFTISRDDSKSGVYLQMNNLRAEDTGLYYCTFGNSFAYWGQGTLVTVSA
VL: QAVVTQESALTTSPGETVTLTCRSSTGAVTTSNYANWVQEKPDHLFTGLIGGTNNRAPGVPARFSGSLIGDKAALTITGAQTEDEAIYFCALWYSNHWVFGGGTKLTVLG
notes: also called MUC1 antibody
For B1, the binding result is recorded as “binds”.
